Data published in US20240036057A1, “DNA APTAMERS FOR THE DETECTION OF MONOMERIC CRP” (Universiteit Hasselt, published 2024).

T1: monomeric C-reactive protein (mCRP) (Homo sapiens, UniProt P02741 P02741:19-224)
T1 sequence: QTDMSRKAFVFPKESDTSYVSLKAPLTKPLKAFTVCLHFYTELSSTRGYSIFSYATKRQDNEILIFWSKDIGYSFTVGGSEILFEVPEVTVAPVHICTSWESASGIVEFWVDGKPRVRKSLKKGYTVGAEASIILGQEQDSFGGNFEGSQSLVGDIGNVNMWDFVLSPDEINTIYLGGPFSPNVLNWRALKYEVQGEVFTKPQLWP


Assays:
[1] = target: T1, monomeric C-reactive protein (mCRP); assay: SPR; 200 nM aptamer; 75 mM HEPES, 0.15 M NaCl pH 7.4
Procedure: Regeneration of the CM4 chip flow cells was achieved by applying 10 mM NaOH with 120 sec followed by several washing steps with 1× aptamer binding buffer. SPR binding concentrations were obtained as a resonance unit RU (1 RU=1 pg/mm² of the sensor surface) by calculating the binding units of antibody/aptamer and mCRP and correcting for the background signal observed in the reference channel.

[2] = target: T1, monomeric C-reactive protein (mCRP); assay: SPR; mCRP immobilized on CM4, pCRP reference cell; 1:1 Langmuir; ka 4.242E+03 1/Ms, kd 6.41E-04 1/s; aptamer binding buffer pH 7.4
Procedure: On the contrary the aptamer was very stable regeneration steps and therefore a multicycle kinetics analysis was performed for the evaluation of reaction kinetics of the aptamer. Pentameric CRP is immobilized in the reference flow cell and mCRP in the active cell at a low immobilization level (70 RU) to achieve an optimal kinetic analysis on CM4 biosensor chips. The kinetic analysis was performed with increasing concentrations of aptamer AmC2 (0-500 nM) applying for 200 sec of association and 200 sec dissociation at flow rate of 300 μl/min. A regeneration step of 120 sec using 1 M NaOH was applied between the injections of different concentrations. The Biacore evaluation software was used in the analysis for estimation of affinity rate constant by fitting the obtained binding sensogram using standard mathematical 1:1 Langmuir model.
The kinetic parameters of the antibody 3H12 and aptamer AmC2 were evaluated using the inbuilt kinetics modules of the Biacore T200 SPR (FIG. 2). […] The strength of the binding interaction between the ligand and target analyte can be measured based on the affinity constant value KD. […] The binding kinetics of the ligand to the target analyte is a time dependent interaction and in SPR this is measured as the association and dissociation constants (ka and kd). […]

Binder | binding result [1] | Kd [2]
AmC3 (ssDNA) DNA: GCACCAGCATATTCGATTGGGAGCGCGGGGGAGAGTAGTGGGGAACGGTGGAGAGTTGGGCTAGTAGGTGCATCAG | binds | –
AmC4 (ssDNA) DNA: GCACCAGCATATTCGATTGGGAGGTGTGAACGTTATGTGGTAGAGAGATGGGTGGTGGGGCTAGTAGGTGCATCAG | binds | –
AmC2 (ssDNA) DNA: GCACCAGCATATTCGATTGTGGCGGGTTGTGAAGGGTGGAGTATGGTCGTGTTGGTTGGGCTAGTAGGTGCATCAG | – | 151 nM
